These results are taken from PMC5445279, “Proanthocyanidin accumulation and transcriptional responses in the seed coat of cranberry beans (Phaseolus vulgaris L.) with different susceptibility to postharvest darkening” (BMC Plant Biology, 2017).

The target of one data set is T1, PvANR1 (Phaseolus vulgaris, UniProt A0A1V0E4B3).
T1 construct: gene ANR1; full ORF (1014 bp PCR product) from seed coat cDNA, pET-30b, E. coli BL21; N-terminal His6 tag cut by enterokinase; forward primer encodes MATVKKIGK
As to the kind of experiment: HPLC-DAD of epicatechin formation, substrate-inhibition fit. Format: biochemical. As to conditions: substrate inhibition by cyanidin, product epicatechin; 800 μM NADPH, 50 mM HEPES pH 7.0, 30 °C; apparent. From the text: (§1) HPLC-DAD of epicatechin formation, substrate-inhibition fit on PvANR1

Substrate in data set [1]: NC(=O)C1=CN([C@@H]2O[C@H](COP(=O)(O)OP(=O)(O)OC[C@H]3O[C@@H](n4cnc5c(N)ncnc54)[C@H](OP(=O)(O)O)[C@@H]3O)[C@@H](O)[C@H]2O)C=CC1
Description: HPLC-DAD of epicatechin formation, Hill fit. As to conditions: product epicatechin, 100 μM cyanidin, 50 mM HEPES pH 7.0, 30 °C, Hill coefficient 2.5, varied: cofactor. The class given is biochemical, Phaseolus vulgaris. An excerpt:
HPLC-DAD of epicatechin formation, Hill fit on PvANR1

Substrate in data set [2]: Oc1cc(O)c2cc(O)c(-c3ccc(O)c(O)c3)[o+]c2c1
Description: HPLC-DAD of epicatechin formation, substrate-inhibition fit. Format: biochemical, Phaseolus vulgaris. As to conditions: product epicatechin, 800 μM NADPH, 50 mM HEPES pH 7.0, 30 °C, apparent, substrate inhibition model.
Description: as §1

The term Vmax denotes the rate approached at saturating substrate. For orientation: kcat means the maximal rate divided by the concentration of active sites. The kcat/Km is the second-order rate constant that governs catalysis at low substrate concentration.

For `Oc1cc(O)c2cc(O)c(-c3ccc(O)c(O)c3)[o+]c2c1` [cyanidin], on PvANR1, the “K i” value came out at 631.5 ± 119.9 µM.

B1: PvANR1 (Phaseolus vulgaris) (protein)
chain: MATVKKIGKKACVIGGSGFMASCLVKQLLHKGYAVNTTVRDPDNAKKISHLLALQSLGDLNIFGADLTGERDFDAPIAGCELVFQLATPVNFASEDPENDMIKPAISGVLNVLKACARAKGVKRVILTSSAAAVTINPVKDTGLVMDESNWTDVEFLNTAKPPTWGYPVSKALAEKAAWKFAEENHIDLITVIPTLTTGPSLTPDIPSSVGLATSLITGNDFLINALKGMQFLSGSISITHVEDICRAHIFVAENESASGRYIVSSHSTSVPELAKFLSKRYPQYKVPTEFDDCPSKAKLTISSEKLVKEGFSFKYGIEEIYDQSVEYLKSKGALKN
notes: full ORF (1014 bp PCR product) from seed coat cDNA, pET-30b, E. coli BL21; N-terminal His6 tag cut by enterokinase; forward primer encodes MATVKKIGK
On to B1, for which, in data set [1], the K0.5 came out at 103.5 ± 7.4 µM, the Vmax was determined as 0.00334 µmol/min/mg, the kcat was 0.0021 ± 0.0001 s⁻¹ and the specificity constant (kcat/Km) is 20.1 ± 0.49 M⁻¹ s⁻¹. Also, in data set [2], the K0.5 was determined as 114.2 ± 19.0 µM, the Vmax turned out to be 0.0116 µmol/min/mg, the kcat worked out at 0.0072 ± 0.0007 s⁻¹ and the kcat/Km was determined as 65.4 ± 13.8 M⁻¹ s⁻¹.
